Test results reported in article PMC9765439, “Systems-Wide Dissection of Organic Acid Assimilation in Pseudomonas aeruginosa Reveals a Novel Path To Underground Metabolism” (mBio, 2022).

Test system: T1, PrpR (His6-PrpR) (Pseudomonas aeruginosa PAO1?), ORF:9118ca87
T1 sequence: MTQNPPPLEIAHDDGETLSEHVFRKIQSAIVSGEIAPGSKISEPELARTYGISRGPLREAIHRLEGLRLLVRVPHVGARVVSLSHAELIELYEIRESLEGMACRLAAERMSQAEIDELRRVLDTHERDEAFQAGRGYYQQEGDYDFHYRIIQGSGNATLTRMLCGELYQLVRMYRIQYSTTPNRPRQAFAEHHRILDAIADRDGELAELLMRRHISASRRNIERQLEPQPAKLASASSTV
Assay: EMSA
Details: 30 mM Tris-HCl pH 8.0, 120 mM KCl, 1 mM MnCl2, 1 mM MgCl2, 20% glycerol, 240 ug/mL BSA, 15.2 ug/mL poly(dI-dC), 21 C, 60 min; 6% PAGE in TBE

For “CTGCTTCATCACGTCGCCCATGCCGCAGGCGAAGTCGATCAGGCGCGGCAACACGTAACGGTCATAGATGCCCACGAAACTCTCTCCTGGCACAGCGGCTGGAGGGGAAAGCATAGACCAGCGATGCATTAGACGATTGTCGACAATCAAGCGACGAATGATTGACCCCACGCAATCCAGGCGGTAGCTTTCGCAAACATTGTCGACACATCGACCCGGACAGCCAGTACCATGACCCAGAACCCGCCCCCTCTCGAGATTGCCCATGAC (double strand) [prpR promoter (prpRp)]”, the binding was “binds”.
